Source: PMC7961048 (2021)
Non-standard residues stand in square brackets, D forms with d. No end group written: not given here. *: point of attachment. Biotin = O=C1N[C@H]2[C@H](CS[C@H]2CCCCC(=O)*)N1; pT = C[C@@H](OP(=O)(O)O)[C@H](N)C(=O)O; ttds = NCCCOCCOCCOCCCNC(=O)CCC(=O)*

T1: full-length human 14-3-3γ fused to the C terminus of MBP (human, UniProt P61981 1-247)
T1 chain: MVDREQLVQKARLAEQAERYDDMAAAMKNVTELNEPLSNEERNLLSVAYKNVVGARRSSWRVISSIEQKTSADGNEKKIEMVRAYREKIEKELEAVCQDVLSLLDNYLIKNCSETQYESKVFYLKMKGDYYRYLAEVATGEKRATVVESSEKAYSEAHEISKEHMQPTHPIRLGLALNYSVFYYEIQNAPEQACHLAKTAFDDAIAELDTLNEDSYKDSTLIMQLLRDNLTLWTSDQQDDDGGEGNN

T2: full-length human 14-3-3η fused to the C terminus of MBP (human, UniProt Q04917 1-246)
T2 chain: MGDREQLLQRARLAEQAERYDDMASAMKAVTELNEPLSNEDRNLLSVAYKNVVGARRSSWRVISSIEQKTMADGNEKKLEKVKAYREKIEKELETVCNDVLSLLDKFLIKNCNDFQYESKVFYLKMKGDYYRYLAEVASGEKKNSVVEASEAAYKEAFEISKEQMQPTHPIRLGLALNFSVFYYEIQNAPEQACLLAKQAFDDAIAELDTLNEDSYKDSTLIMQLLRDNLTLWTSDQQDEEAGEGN

T3: full-length human 14-3-3ζ fused to the C terminus of MBP (human, UniProt P63104 1-245)
T3 chain: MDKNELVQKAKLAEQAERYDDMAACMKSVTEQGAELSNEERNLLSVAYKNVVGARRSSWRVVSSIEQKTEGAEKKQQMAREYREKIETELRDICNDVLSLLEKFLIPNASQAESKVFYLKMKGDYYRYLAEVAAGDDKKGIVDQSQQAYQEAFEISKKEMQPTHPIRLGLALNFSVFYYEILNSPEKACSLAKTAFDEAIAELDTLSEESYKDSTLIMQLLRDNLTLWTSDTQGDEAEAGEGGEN

T4: full-length human 14-3-3τ fused to the C terminus of MBP (human, UniProt P27348 1-245)
T4 chain: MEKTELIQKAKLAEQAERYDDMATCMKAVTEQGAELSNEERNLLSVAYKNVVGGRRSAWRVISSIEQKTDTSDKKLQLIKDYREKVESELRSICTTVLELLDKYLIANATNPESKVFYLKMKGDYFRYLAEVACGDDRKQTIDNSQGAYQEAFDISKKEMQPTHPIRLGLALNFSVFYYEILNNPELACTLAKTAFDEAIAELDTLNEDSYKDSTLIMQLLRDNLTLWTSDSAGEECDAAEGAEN

T5: unfused 14-3-3ε devoid of the flexible C-terminal tail (human)
T5 chain: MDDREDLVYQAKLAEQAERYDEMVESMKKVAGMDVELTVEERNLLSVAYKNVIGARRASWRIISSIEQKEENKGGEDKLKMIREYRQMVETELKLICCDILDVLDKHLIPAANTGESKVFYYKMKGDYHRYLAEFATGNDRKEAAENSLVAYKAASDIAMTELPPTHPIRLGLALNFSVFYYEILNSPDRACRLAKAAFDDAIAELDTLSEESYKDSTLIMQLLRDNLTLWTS

T6: unfused 14-3-3β devoid of the flexible C-terminal tail (human)
T6 chain: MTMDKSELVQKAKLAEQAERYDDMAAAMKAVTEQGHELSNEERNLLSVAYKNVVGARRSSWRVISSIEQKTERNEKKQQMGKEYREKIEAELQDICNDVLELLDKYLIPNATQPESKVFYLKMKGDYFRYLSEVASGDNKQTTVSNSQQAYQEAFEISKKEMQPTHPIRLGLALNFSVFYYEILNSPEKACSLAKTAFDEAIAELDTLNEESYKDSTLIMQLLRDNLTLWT

T7: full-length human 14-3-3β fused to the C terminus of MBP (human, UniProt P31946 1-246)
T7 chain: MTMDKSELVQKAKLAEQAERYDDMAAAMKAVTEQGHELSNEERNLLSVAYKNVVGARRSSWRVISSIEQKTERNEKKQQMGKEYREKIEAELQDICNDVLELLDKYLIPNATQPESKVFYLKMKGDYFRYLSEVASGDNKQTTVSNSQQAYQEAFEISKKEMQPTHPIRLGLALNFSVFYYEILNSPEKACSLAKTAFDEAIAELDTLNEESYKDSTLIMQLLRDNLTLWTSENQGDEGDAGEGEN

T8: unfused 14-3-3τ devoid of the flexible C-terminal tail (human)
T8 chain: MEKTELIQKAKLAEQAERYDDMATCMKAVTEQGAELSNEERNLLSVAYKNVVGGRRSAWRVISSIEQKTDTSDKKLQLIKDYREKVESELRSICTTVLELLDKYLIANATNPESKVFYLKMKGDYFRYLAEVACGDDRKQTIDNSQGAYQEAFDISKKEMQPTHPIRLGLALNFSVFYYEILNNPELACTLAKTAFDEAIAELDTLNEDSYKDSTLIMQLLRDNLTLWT


Legend:
[1] = target: T1, full-length human 14-3-3γ fused to the …; assay: FP; with FSC
[2] = target: T2, full-length human 14-3-3η fused to the …; assay: FP
[3] = target: T3, full-length human 14-3-3ζ fused to the …; assay: FP; +FSC
[4] = target: T1, full-length human 14-3-3γ fused to the …; assay: FP; +FSC
[5] = target: T4, full-length human 14-3-3τ fused to the …; assay: FP
[6] = target: T5, unfused 14-3-3ε devoid of the flexible …; assay: FP
[7] = target: T3, full-length human 14-3-3ζ fused to the …; assay: FP
[8] = target: T6, unfused 14-3-3β devoid of the flexible …; assay: FP
[9] = target: T7, full-length human 14-3-3β fused to the …; assay: FP
[10] = target: T1, full-length human 14-3-3γ fused to the …; assay: FP
[11] = target: T8, unfused 14-3-3τ devoid of the flexible …; assay: FP

Row | Binder | Kd [1] | Kd [2] | Kd [3] | Kd [4] | Kd [5] | Kd [6] | Kd [7] | Kd [8] | Kd [9] | Kd [10] | Kd [11]
1 | {Biotin-ttds}-SSRTRRE[pT]QL [HPV16 E6 phospho-PBM peptide p16E6] | 91.7 µM | 80.5 µM | 161 µM | 91.7 µM | 144 µM | 186 µM | 73.6 µM | 148 µM | 159 µM | 37.2 µM | 135 µM
2 | {Biotin-ttds}-RLQRRRE[pT]QV [HPV18 E6 phospho-PBM peptide p18E6] | 19.3 µM | 23.6 µM | 37.3 µM | 19.3 µM | 37.8 µM | 66.2 µM | 22.4 µM | 42.3 µM | 42.2 µM | 11.1 µM | 42.3 µM
